Assay [1] concerns IGFBP-1. The assay can be described thus: competitive phage ELISA of IGF-1 mutants, IGFBP-1. The class given is binding, human. Conditions: relative IC50 IGFBP-1/relative IC50 IGFBP-3. How it is done: (§1) An alanine-scanning mutagenesis approach (Cunningham and Wells, Science, 244: 1081-1085 (1989); U.S. Pat. No. 5,834,250) was used to remove that portion of each side chain of IGF-1 beyond the beta carbon. The contribution of these atoms to the free energy of binding of the IGF-1 analog to IGFBP-1 or to IGFBP-3 was then assessed by competitive phage ELISA. In this assay, IGFBP-1 or IGFBP-3 is used to inhibit IGF-phage mutants from binding to an IGFBP-1- or IGFBP-3-coated immunosorbant plate.
(§2) Immunosorbent plates (Nunc, MAXISORP™, 96 wells) were coated with 100 μl/well of 1 μg/ml IGFBP-1 or IGFBP-3 in PBS buffer pH 7.2 at 4° C. overnight. The plates were then blocked with 0.5% TWEEN 20™/PBS (also used as binding buffer) for 2 hours at room temperature (proteinaceous blocking agents like bovine serum albumin were avoided to prevent potential IGF or IGFBP contamination). E. coli cells (XL1-Blue, Stratagene) freshly transformed with phagemid vector were grown overnight in 5 mL 2YT medium (Sambrook et al., supra) in the presence of M13-VCS helper phage (Stratagene). Phage particles were harvested and resuspended in PBS buffer as described in Lowman, H. B., “Phage Display of Peptide Libraries on Protein Scaffolds,” in Cabilly, S. (ed.), Combinatorial Peptide Library Protocols (Humana Press Inc.: Totowa, N.J., 1998), pp. 249-264. Then phage concentrations were normalized to yield a maximal ELISA signal of 0.2-0.4 for each mutant (Lowman, in Cabilly, S. (ed.), supra). Threefold serial dilutions of soluble competitor were prepared on non-absorbent microtiter plates (Nunc, F, 96 wells) with binding buffer (0.5% TWEEN 20™/PBS) containing phage at the previously determined concentrations. The dilution range of competitor protein extended over six orders of magnitude, starting at 5 μM for IGFBP-1 and 500 nM for IGFBP-3. After blocking, the plates containing immobilized target were washed with 0.05% TWEEN™/PBS buffer and subsequently incubated with 80 μl/well of the premixed phage-competitor solutions for 1 hour at room temperature. After washing, bound phage was detected with 80 μl/well of a solution containing a primary rabbit anti-phage polyclonal antibody and a secondary goat anti-rabbit monoclonal antibody-horseradish peroxidase conjugate in 0.5% TWEEN 20™/PBS. o-Phenylenediamine (Sigma) and tetramethylbenzidine (Kirkegaard and Perry) were used as chromogenic substrates, resulting in product detection at 492 and 450 nm, respectively. IC50 values were determined by fitting the binding data to a generic saturation curve (Lowman, in Cabilly, S. (ed.), supra). At least two individual clones of each IGF-1 mutant were assayed. Numbers in Table XIII represent mean±standard deviation of individually assessed IC50 values.
(In general: In an ELISA, binding on a coated surface is turned into a signal by an enzyme label.)

In the next assay the target is T1, IGFBP-3 (Homo sapiens, UniProt P17936).
T1 construct: made in house
The assay can be described thus: competitive phage ELISA of IGF-1 mutants, IGFBP-3. The class given is binding. To be noted: for IC50: phage display, soluble IGFBP-3 competitor; for increase in IGFBP-3 binding / larger effects on IGFBP-3 than on IGFBP-1 binding: phage ELISA. How it is done:
as §1, §2

Assay [2] concerns the target T2, IGFBP-1 (Homo sapiens, UniProt P08833).
T2 sequence (P08833 26-259): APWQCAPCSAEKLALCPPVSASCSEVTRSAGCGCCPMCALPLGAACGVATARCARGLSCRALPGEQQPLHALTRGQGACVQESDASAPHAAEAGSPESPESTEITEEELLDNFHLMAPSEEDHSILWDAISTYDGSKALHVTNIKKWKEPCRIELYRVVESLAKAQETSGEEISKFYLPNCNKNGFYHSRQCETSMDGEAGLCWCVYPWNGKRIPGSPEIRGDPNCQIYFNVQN
The assay can be described thus: competitive phage ELISA of IGF-1 mutants, IGFBP-1. Conditions: for IC50: phage display, soluble IGFBP-1 competitor. Also on record: made in house; host or cells: CHO cells. Type of assay: binding. How it is done: as §1, §2

[3] abbreviates: IC50 mut/IC50 G1S-A70V, listed as des(1-2)-IGF-1.

T1 sequence (P17936 28-291): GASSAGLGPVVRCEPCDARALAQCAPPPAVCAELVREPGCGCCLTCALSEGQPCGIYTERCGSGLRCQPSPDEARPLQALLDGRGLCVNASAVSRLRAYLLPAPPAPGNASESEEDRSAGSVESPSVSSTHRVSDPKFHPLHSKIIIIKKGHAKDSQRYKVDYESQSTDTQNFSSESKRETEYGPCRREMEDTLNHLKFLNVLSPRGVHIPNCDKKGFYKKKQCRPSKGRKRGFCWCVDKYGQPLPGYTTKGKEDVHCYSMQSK

Substance D53A: IGF-1 single alanine mutant returned a relative specificity in the assay with IGFBP-1 [1] of 1.6. The 50% inhibitory concentration (IC50) came to 1.05 ± 0.11 nM with IGFBP-3 and 15.3 ± 2.8 nM with IGFBP-1 [2].
For S33A: IGF-1 single alanine mutant, the relative specificity in the assay on IGFBP-1 [1] was 0.8. Further, the half-maximal inhibitory concentration (IC50) with IGFBP-3 is 1.01 ± 0.24 nM; in the assay with IGFBP-1 [2], 9.1 ± 1 nM.
With T41A: IGF-1 single alanine mutant, the relative specificity in the assay with IGFBP-1 [1] is recorded as 2.9. In addition, in the assay with IGFBP-3, the “increase in IGFBP-3 binding” value is “approximately 2 fold”. In addition, the IC50 worked out at 0.43 ± 0.06 nM with IGFBP-3 and 13.7 ± 3.1 nM with IGFBP-1 [2].
In turn, S69A: IGF-1 single alanine mutant yielded a relative specificity in the assay on IGFBP-1 [1] of 1.3. Moreover, the figures for the IC50 in the assay with IGFBP-3 and with IGFBP-1 [2] were 0.71 ± 0.62 nM and 12.8 ± 2.3 nM, respectively.
In the assay with IGFBP-1 [1], L5A: IGF-1 single alanine mutant had a relative specificity of 3.3. The IC50 with IGFBP-3 is 1.53 ± 0.22 nM; with IGFBP-1 [2] it was 55.3 ± 11.6 nM.
In the assay with IGFBP-1 [1], S51A: IGF-1 single alanine mutant registered a relative specificity of 1.9. Also, the half-inhibitory concentration (IC50) with IGFBP-3 was determined as 0.65 ± 0.35 nM; with IGFBP-1 [2], 13.4 ± 0.4 nM.
In the case of G30A: IGF-1 single alanine mutant, in the assay with IGFBP-1 [1], the relative specificity is recorded as 1.1. Also, the IC50 in the assay with IGFBP-3 was 0.58 ± 0.11 nM; with IGFBP-1 [2], 7.1 ± 1.7 nM.
In the assay with IGFBP-1 [1], M59A: IGF-1 single alanine mutant registered a relative specificity of 1.6. For the same substance, the IC50 was 0.74 ± 0.14 nM with IGFBP-3 and 13.1 ± 1.8 nM with IGFBP-1 [2].
For P66A: IGF-1 single alanine mutant the same measures were 1.5, 0.57 ± 0.12 nM and 9.4 ± 3.2 nM.
Regarding E9A: IGF-1 single alanine mutant, the relative specificity with IGFBP-1 [1] stood at 0.6. Also, in the assay with IGFBP-3, the “larger effects on IGFBP-3 than on IGFBP-1 binding” value (shortened to “larger effects on IGFBP-3 than”) is “about 2 fold”. Besides, the IC50 in the assay with IGFBP-3 was found to be 1.32 ± 0.3 nM; with IGFBP-1 [2] it was 8.6 ± 0.6 nM.
In turn, L57A: IGF-1 single alanine mutant came in with a relative specificity in the assay on IGFBP-1 [1] of 1.1. In addition, the IC50 in the assay with IGFBP-3 came out at 1.78 ± 0.56 nM; with IGFBP-1 [2], 21.8 ± 5.6 nM.
For R21A: IGF-1 single alanine mutant, in that order: 1.1, 0.58 ± 0.01 nM and 7.1 ± 1.6 nM.
In the assay on IGFBP-1 [1], F23A: IGF-1 single alanine mutant returned a relative specificity of 0.5. In the assay with IGFBP-3, the “larger effects on IGFBP-3 than” value is “about 2 fold” and the IC50 is 2.18 ± 0.01 nM. For the same substance, the IC50 in the assay with IGFBP-1 [2] amounted to 10.9 ± 1.9 nM.
The substance K27A: IGF-1 single alanine mutant came in with a relative specificity in the assay on IGFBP-1 [1] of 1.8. Further, the 50% inhibitory concentration (IC50) with IGFBP-3 came to 0.66 ± 0.35 nM; with IGFBP-1 [2] it was 12.8 ± 0.1 nM.
In the assay on IGFBP-1 [1], V17A: IGF-1 single alanine mutant came in with a relative specificity of 1.1. Further, the results for the IC50 with IGFBP-3 and with IGFBP-1 [2] were 3.67 ± 1.02 nM and 42.9 ± 3.2 nM, respectively.
In the assay on IGFBP-1 [1], S35A: IGF-1 single alanine mutant showed a relative specificity of 2.3. Besides, in the assay with IGFBP-3, the “increase in IGFBP-3 binding” value was “approximately 2 fold” and the IC50 is 0.47 ± 0.01 nM. Besides, in the assay with IGFBP-1 [2], the IC50 came out at 11.7 ± 0.6 nM.
For “Des(1-2)-IGF: IGF-1 mutant lacking residues 1 and 2”, the relative specificity with IGFBP-1 [1] amounted to 0.9. Besides, in the assay with IGFBP-3 (setting [3]), the “IGFBP-3 relative IC50” value is “no difference in affinity”. Further, the “IGFBP-1 Relative IC50” value with IGFBP-1 [2] (setting [3]) is reported as “no difference in affinity”.
Regarding R55A: IGF-1 single alanine mutant, the relative specificity with IGFBP-1 [1] is recorded as 1.2. Also, the results for the IC50 with IGFBP-3 and with IGFBP-1 [2] were 0.66 ± 0.03 nM and 9 ± 2.3 nM, respectively.
In the assay with IGFBP-1 [1], K68A: IGF-1 single alanine mutant registered a relative specificity of 1.3. Besides, the results for the IC50 in the assay with IGFBP-3 and with IGFBP-1 [2] were 0.76 ± 0.23 nM and 10.5 ± 2.8 nM, respectively.
In the assay with IGFBP-1 [1], E58A: IGF-1 single alanine mutant came in with a relative specificity of 1.1. Besides, the values for the IC50 in the assay with IGFBP-3 and with IGFBP-1 [2] were 1.03 ± 0.47 nM and 11.9 ± 1.8 nM, respectively.
Consider L10A: IGF-1 single alanine mutant, for which the IC50 turned out to be 3.55 ± 0.33 nM with IGFBP-3 and 311 ± 87 nM in the assay with IGFBP-1 [2].
In the case of R56A: IGF-1 single alanine mutant, the relative specificity in the assay on IGFBP-1 [1] was determined as 1.2. The IC50 with IGFBP-3 amounted to 1 ± 0.19 nM; in the assay with IGFBP-1 [2], 13.1 ± 1.8 nM.
For Y31A: IGF-1 single alanine mutant, in that order: 0.9, 0.73 ± 0.1 nM and 6.8 ± 0.5 nM.
For I43A: IGF-1 single alanine mutant the same measures were 2.4, 1.17 ± 0.07 nM and 31.3 ± 4.1 nM.
In the assay with IGFBP-1 [1], G22A: IGF-1 single alanine mutant displayed a relative specificity of 0.7. Further, the values for the IC50 with IGFBP-3 and with IGFBP-1 [2] were 2.07 ± 0.11 nM and 15.9 ± 2.8 nM, respectively.
The substance D20A: IGF-1 single alanine mutant came in with a relative specificity in the assay on IGFBP-1 [1] of 0.7. In addition, the figures for the IC50 with IGFBP-3 and with IGFBP-1 [2] were 1.11 ± 0.06 nM and 8.4 ± 4.1 nM, respectively.
For K65A: IGF-1 single alanine mutant the same measures were 1.6, 0.69 ± 0.05 nM and 12.4 ± 0.6 nM.
In turn, T29A: IGF-1 single alanine mutant came in with a relative specificity in the assay on IGFBP-1 [1] of 0.5. Moreover, in the assay with IGFBP-3, the “larger effects on IGFBP-3 than” value is on record as “about 2 fold” and the IC50 is 1.23 ± 0.16 nM. The substance also returned an IC50 with IGFBP-1 [2] of 7.3 ± 2.4 nM.
Regarding N26A: IGF-1 single alanine mutant, in the assay on IGFBP-1 [1], the relative specificity worked out at 0.9. For the same substance, the IC50 was found to be 0.9 ± 0.07 nM with IGFBP-3 and 9.1 ± 1.8 nM with IGFBP-1 [2].
Consider “S1G: single mutant of G1S-A70V IGF-1 restoring G1”, for which, in the assay with IGFBP-1 [1], the relative specificity came to 1.0.
As for E3A: IGF-1 single alanine mutant, the IC50 amounted to 1.05 ± 0.08 nM in the assay with IGFBP-3 and 278 ± 86 nM in the assay with IGFBP-1 [2].
For the substance P63A: IGF-1 single alanine mutant, the IC50 in the assay with IGFBP-3 is more than 100 nM; with IGFBP-1 [2] it was more than 1000 nM.
For G7A: IGF-1 single alanine mutant, the IC50 in the assay with IGFBP-3 was 4.58 ± 0.28 nM; in the assay with IGFBP-1 [2], more than 1000 nM.
L64A: IGF-1 single alanine mutant had a relative specificity in the assay with IGFBP-1 [1] of 1.2. Besides, the values for the IC50 with IGFBP-3 and with IGFBP-1 [2] were 0.93 ± 0.03 nM and 12.1 ± 3.3 nM, respectively.
In the assay with IGFBP-1 [1], Y24A: IGF-1 single alanine mutant yielded a relative specificity of 0.5. Further, the “larger effects on IGFBP-3 than” value in the assay with IGFBP-3 was “about 2 fold”. Besides, the results for the IC50 with IGFBP-3 and with IGFBP-1 [2] were 2.53 ± 0.76 nM and 13.3 ± 2.9 nM, respectively.
For S34A: IGF-1 single alanine mutant, in that order: 0.5, “about 2 fold”, 1.65 ± 0.21 nM and 9.5 ± 0.7 nM.
Take Q40A: IGF-1 single alanine mutant: in the assay with IGFBP-1 [1], the relative specificity is listed as 1.7. Moreover, the IC50 in the assay with IGFBP-3 was found to be 0.56 ± 0.03 nM; with IGFBP-1 [2] it was 10.2 ± 0.9 nM.
On to “V70A: single mutant of G1S-A70V IGF-1 restoring A70”, for which, in the assay on IGFBP-1 [1], the relative specificity came to 2.6.
In the assay on IGFBP-1 [1], Y60A: IGF-1 single alanine mutant registered a relative specificity of 1.2. Moreover, the IC50 turned out to be 0.52 ± 0.01 nM with IGFBP-3 and 6.6 ± 1.8 nM with IGFBP-1 [2].
Regarding P28A: IGF-1 single alanine mutant, the relative specificity in the assay on IGFBP-1 [1] is recorded as 0.6. In addition, the values for the half-maximal inhibitory concentration (IC50) with IGFBP-3 and in the assay with IGFBP-1 [2] were 1.41 ± 0.05 nM and 9.3 ± 1.4 nM, respectively.

The term IC50 denotes the midpoint of a concentration-inhibition curve.

The record behind these values is patent publication US7423017B2, “Method for treating cartilage disorders” (Genentech, Inc., priority 1997, dated 2008).
